Reference: paper PMC10397247

Assays:
Assay in all cases: two-hybrid library CCNG1;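 note: natural log of median RNA to DNA barcode read ratio; higher means stronger binding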
P12A = target: T1, P12A
T1 chain: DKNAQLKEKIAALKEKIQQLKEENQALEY

P1A = target: T2, P1A
T2 chain: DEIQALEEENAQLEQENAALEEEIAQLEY

P2A = target: T3, P2A
T3 chain: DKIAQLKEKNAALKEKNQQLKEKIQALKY

P3A = target: T4, P3A
T4 chain: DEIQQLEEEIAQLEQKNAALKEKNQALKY

P4A = target: T5, P4A
T5 chain: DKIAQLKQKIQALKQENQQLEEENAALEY

P5A = target: T6, P5A
T6 chain: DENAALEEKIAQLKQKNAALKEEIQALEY

P6A = target: T7, P6A
T7 chain: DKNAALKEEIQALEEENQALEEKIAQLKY

P7A = target: T8, P7A
T8 chain: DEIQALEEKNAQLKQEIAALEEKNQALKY

P8A = target: T9, P8A
T9 chain: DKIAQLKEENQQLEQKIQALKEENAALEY

P9A = target: T10, P9A
T10 chain: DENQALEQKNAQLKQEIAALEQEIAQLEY

4H1158-bH = target: T11, 4H1158-bH
T11 chain: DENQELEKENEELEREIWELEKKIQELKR

4H118-bH = target: T12, 4H118-bH
T12 chain: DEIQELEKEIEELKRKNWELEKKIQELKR

4H170-bH = target: T13, 4H170-bH
T13 chain: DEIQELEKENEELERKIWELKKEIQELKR

4H1831-bH = target: T14, 4H1831-bH
T14 chain: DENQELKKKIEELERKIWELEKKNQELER

4H2586-bH = target: T15, 4H2586-bH
T15 chain: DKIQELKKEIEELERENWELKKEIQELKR

4H2627-bH = target: T16, 4H2627-bH
T16 chain: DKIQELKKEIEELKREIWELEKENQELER

4H2673-bH = target: T17, 4H2673-bH
T17 chain: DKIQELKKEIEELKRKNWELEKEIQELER

4H2702-bH = target: T18, 4H2702-bH
T18 chain: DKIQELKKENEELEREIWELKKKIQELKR

4H3010-bH = target: T19, 4H3010-bH
T19 chain: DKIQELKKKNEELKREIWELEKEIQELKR

4H3112-bH = target: T20, 4H3112-bH
T20 chain: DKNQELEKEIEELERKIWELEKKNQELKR

4H3427-bH = target: T21, 4H3427-bH
T21 chain: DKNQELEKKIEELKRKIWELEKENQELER

4H346-bH = target: T22, 4H346-bH
T22 chain: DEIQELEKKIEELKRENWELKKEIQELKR

4H3926-bH = target: T23, 4H3926-bH
T23 chain: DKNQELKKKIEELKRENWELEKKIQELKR

4H4073-bH = target: T24, 4H4073-bH
T24 chain: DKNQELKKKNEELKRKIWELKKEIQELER

4H457-bH = target: T25, 4H457-bH
T25 chain: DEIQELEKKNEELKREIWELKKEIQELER

4H575-bH = target: T26, 4H575-bH
T26 chain: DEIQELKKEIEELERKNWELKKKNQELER

4H683-bH = target: T27, 4H683-bH
T27 chain: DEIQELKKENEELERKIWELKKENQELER

4H754-bH = target: T28, 4H754-bH
T28 chain: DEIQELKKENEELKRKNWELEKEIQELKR

4H780-bH = target: T29, 4H780-bH
T29 chain: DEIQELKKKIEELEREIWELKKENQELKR

4H797-bH = target: T30, 4H797-bH
T30 chain: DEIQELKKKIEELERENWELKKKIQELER

4H855-bH = target: T31, 4H855-bH
T31 chain: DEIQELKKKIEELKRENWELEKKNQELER

4H918-bH = target: T32, 4H918-bH
T32 chain: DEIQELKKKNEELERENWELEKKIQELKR

4H953-bH = target: T33, 4H953-bH
T33 chain: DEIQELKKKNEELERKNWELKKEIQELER

4H968-bH = target: T34, 4H968-bH
T34 chain: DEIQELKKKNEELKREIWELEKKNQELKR

4H1158-bN = target: T35, 4H1158-bN
T35 chain: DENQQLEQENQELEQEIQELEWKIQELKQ

4H118-bN = target: T36, 4H118-bN
T36 chain: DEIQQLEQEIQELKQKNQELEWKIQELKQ

4H170-bN = target: T37, 4H170-bN
T37 chain: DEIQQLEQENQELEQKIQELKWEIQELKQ

4H1831-bN = target: T38, 4H1831-bN
T38 chain: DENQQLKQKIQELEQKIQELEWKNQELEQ

4H2586-bN = target: T39, 4H2586-bN
T39 chain: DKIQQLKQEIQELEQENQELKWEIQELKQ

4H2627-bN = target: T40, 4H2627-bN
T40 chain: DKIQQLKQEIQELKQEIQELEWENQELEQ

4H2673-bN = target: T41, 4H2673-bN
T41 chain: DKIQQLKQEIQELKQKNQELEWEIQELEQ

4H2702-bN = target: T42, 4H2702-bN
T42 chain: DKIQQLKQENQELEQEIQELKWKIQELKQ

4H3010-bN = target: T43, 4H3010-bN
T43 chain: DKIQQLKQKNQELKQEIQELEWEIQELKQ

4H3112-bN = target: T44, 4H3112-bN
T44 chain: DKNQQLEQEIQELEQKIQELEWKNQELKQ

4H3427-bN = target: T45, 4H3427-bN
T45 chain: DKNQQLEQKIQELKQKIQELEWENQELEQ

4H346-bN = target: T46, 4H346-bN
T46 chain: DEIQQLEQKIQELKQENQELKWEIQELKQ

4H3926-bN = target: T47, 4H3926-bN
T47 chain: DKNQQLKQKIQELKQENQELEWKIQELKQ

4H4073-bN = target: T48, 4H4073-bN
T48 chain: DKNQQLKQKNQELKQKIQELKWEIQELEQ

4H457-bN = target: T49, 4H457-bN
T49 chain: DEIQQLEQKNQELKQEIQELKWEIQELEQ

4H575-bN = target: T50, 4H575-bN
T50 chain: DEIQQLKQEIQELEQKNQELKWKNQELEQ

4H683-bN = target: T51, 4H683-bN
T51 chain: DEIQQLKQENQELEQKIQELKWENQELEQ

4H754-bN = target: T52, 4H754-bN
T52 chain: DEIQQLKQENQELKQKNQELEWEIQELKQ

4H780-bN = target: T53, 4H780-bN
T53 chain: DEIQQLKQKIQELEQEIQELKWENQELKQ

4H797-bN = target: T54, 4H797-bN
T54 chain: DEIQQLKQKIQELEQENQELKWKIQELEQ

4H855-bN = target: T55, 4H855-bN
T55 chain: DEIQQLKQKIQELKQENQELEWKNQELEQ

4H918-bN = target: T56, 4H918-bN
T56 chain: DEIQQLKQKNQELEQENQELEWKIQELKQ

4H953-bN = target: T57, 4H953-bN
T57 chain: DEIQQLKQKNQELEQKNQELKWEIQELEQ

4H968-bN = target: T58, 4H968-bN
T58 chain: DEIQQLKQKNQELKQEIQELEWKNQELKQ

P11A = target: T59, P11A
T59 chain: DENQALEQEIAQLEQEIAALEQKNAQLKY

4H1387-bH = target: T60, 4H1387-bH
T60 chain: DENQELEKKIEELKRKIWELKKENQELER

4H1406-bH = target: T61, 4H1406-bH
T61 chain: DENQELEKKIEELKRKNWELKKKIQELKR

4H3592-bH = target: T62, 4H3592-bH
T62 chain: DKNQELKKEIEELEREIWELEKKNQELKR

4H3601-bH = target: T63, 4H3601-bH
T63 chain: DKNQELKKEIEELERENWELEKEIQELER

4H3907-bH = target: T64, 4H3907-bH
T64 chain: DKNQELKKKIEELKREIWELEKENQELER

4H4001-bH = target: T65, 4H4001-bH
T65 chain: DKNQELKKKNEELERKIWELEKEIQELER

4H4038-bH = target: T66, 4H4038-bH
T66 chain: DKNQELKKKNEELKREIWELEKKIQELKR

4H850-bN = target: T67, 4H850-bN
T67 chain: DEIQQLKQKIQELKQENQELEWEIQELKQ

Binder: DKNAQLKEKIAALKEKIQQLKEENQALEY [P12A]
- interaction score (P12A): -1.24
- interaction score (P1A): -1.2
- interaction score (P2A): -1.43
- interaction score (P3A): 0.438
- interaction score (P4A): -1.48
- interaction score (P5A): -1.22
- interaction score (P6A): -1.16
- interaction score (P7A): -1.15
- interaction score (P8A): -1.25
- interaction score (P9A): -0.254

Binder: DENQELEKENEELEREIWELEKKIQELKR [4H1158-bH]
- interaction score (4H1158-bH): 0.619
- interaction score (4H118-bH): 0.729
- interaction score (4H170-bH): 0.0131
- interaction score (4H1831-bH): 0.197
- interaction score (4H2586-bH): 0.198
- interaction score (4H2627-bH): 1.81
- interaction score (4H2673-bH): 0.836
- interaction score (4H2702-bH): 0.109
- interaction score (4H3010-bH): 1.95
- interaction score (4H3112-bH): -0.598
- interaction score (4H3427-bH): 0.596
- interaction score (4H346-bH): 0.268
- interaction score (4H3926-bH): 1.63
- interaction score (4H4073-bH): 1.57
- interaction score (4H457-bH): 0.951
- interaction score (4H575-bH): 0.888
- interaction score (4H683-bH): 1.13
- interaction score (4H754-bH): 0.159
- interaction score (4H780-bH): 0.975
- interaction score (4H797-bH): 0.508
- interaction score (4H855-bH): -0.335
- interaction score (4H918-bH): -0.233
- interaction score (4H953-bH): 0.0112
- interaction score (4H968-bH): 0.725

Binder: DENQQLEQENQELEQEIQELEWKIQELKQ [4H1158-bN]
- interaction score (4H1158-bN): 0.0264
- interaction score (4H118-bN): 0.579
- interaction score (4H170-bN): -0.262
- interaction score (4H1831-bN): -0.553
- interaction score (4H2586-bN): 0.693
- interaction score (4H2627-bN): -1.89
- interaction score (4H2673-bN): -1.07
- interaction score (4H2702-bN): -0.191
- interaction score (4H3010-bN): 1.32
- interaction score (4H3112-bN): 0.501
- interaction score (4H3427-bN): -0.273
- interaction score (4H346-bN): -0.45
- interaction score (4H3926-bN): -1.19
- interaction score (4H4073-bN): 2.1
- interaction score (4H457-bN): 0.107
- interaction score (4H575-bN): -0.306
- interaction score (4H683-bN): 0.827
- interaction score (4H754-bN): 0.195
- interaction score (4H780-bN): -0.000435
- interaction score (4H797-bN): -0.804
- interaction score (4H855-bN): 0.326
- interaction score (4H918-bN): -1.72
- interaction score (4H953-bN): 0.0849
- interaction score (4H968-bN): -1.23

Binder: DENQALEQEIAQLEQEIAALEQKNAQLKY [P11A]
- interaction score (P11A): -0.318
- interaction score (P12A): 2.09
- interaction score (P1A): -0.233
- interaction score (P2A): -0.397
- interaction score (P3A): 0.195
- interaction score (P4A): 1.99
- interaction score (P5A): 0.167
- interaction score (P6A): -0.873
- interaction score (P7A): -1.77
- interaction score (P8A): -0.16
- interaction score (P9A): 0.145

Binder: DENQELEKKIEELKRKIWELKKENQELER [4H1387-bH]
- interaction score (4H1387-bH): 0.423
- interaction score (4H1406-bH): -0.693
- interaction score (4H3592-bH): 1.37
- interaction score (4H3601-bH): -0.847
- interaction score (4H3907-bH): 1.59
- interaction score (4H4001-bH): 0.333
- interaction score (4H4038-bH): 1.09
- interaction score (4H850-bN): 0.44
